Measured values as given in PMC9016638 (bioRxiv, 2022).
No end group written: not given here. *: point of attachment. Biotin = O=C1N[C@H]2[C@H](CS[C@H]2CCCCC(=O)*)N1

Experiments:
Test in all cases: […]
SARS-CoV-2 S2 peptide 42 = target: T1, SARS-CoV-2 S2 peptide 42 (SARS-CoV-2 Wuhan-Hu-1, UniProt P0DTC2)
T1 chain: Biotin-PSKPSKRSFIEDLLF

SARS-CoV-2 S2 peptide 43 = target: T2, SARS-CoV-2 S2 peptide 43 (SARS-CoV-2 Wuhan-Hu-1, UniProt P0DTC2)
T2 chain: Biotin-PSKRSFIEDLLFNKV

SARS-CoV-2 S2 peptide 44 = target: T3, SARS-CoV-2 S2 peptide 44 (SARS-CoV-2 Wuhan-Hu-1, UniProt P0DTC2)
T3 chain: Biotin-RSFIEDLLFNKVTLA

Measured: binding result

B1: COV44-79 (antibody, V domains shown)
VH: QVQLVESGGGVVQPGRSLRLSCAASGLTFSGYAMHWVRQAPGKGLEWVAVISRDARNKYYADSVKGRFTISRDNSKKTVYLEMNSLRVEDTAVYYCAILIIPGITEPGSPDALDIWGQGTMVSVSS
VL: DIQMTQSPSSMSASVGDRVTITCRASQDISKWLAWYQQRPGKAPKLLIYAASSLQSGVPSRFSGSGSGTDFTLTISSLQPEDFATYYCQQASSFPWSITFGQGTRLEIR
binds: SARS-CoV-2 S2 peptide 42 | SARS-CoV-2 S2 peptide 43 | SARS-CoV-2 S2 peptide 44

B2: COV44-62 (antibody, V domains shown)
VH: QMQLMQSGAEVKKPGASVTVSCKASGDTFSDYRIHWVRQAPGQGLEWMGRMNPKSGDTNFAQKFQGRVTMTRDMSINTAYMTLSGLTFDDTALYYCASLLIVGGFDPLDDFEVWGQGTMVTISS
VL: QSALTQPPSASGSPGQSVTISCSGTSSDVGGYNFVSWYQHHPGKAPKILIYEVTKRPSGVPDRFSGSKSGNTASLTVSGLQAEDEADYYCSSYGGTNNLLFGGGTKLTVL
binds: SARS-CoV-2 S2 peptide 42 | SARS-CoV-2 S2 peptide 43 | SARS-CoV-2 S2 peptide 44
